# T1: human FcγRIIb extracellular domain with C-terminal His tag (human, UniProt P31994 43-217)
# T1 construct: extracellular domain; also called FcgRIIb; 2b; not shown: His tag attached to the C terminus
# T1 sequence (looked up): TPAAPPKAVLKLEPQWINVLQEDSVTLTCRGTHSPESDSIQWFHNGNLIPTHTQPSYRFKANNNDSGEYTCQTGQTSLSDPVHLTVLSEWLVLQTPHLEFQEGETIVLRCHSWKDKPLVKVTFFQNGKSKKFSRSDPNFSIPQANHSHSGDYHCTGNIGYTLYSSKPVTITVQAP
# B1: GpH7-A5/GpH7-B3 variant P331_04F/GpL16-k0 (He Ab) (antibody, human IgG1, kappa)
# heavy 1: not shown
# heavy 2: not shown
# light: DIVMTQSPLSLPVTPGEPASISCQASESLVHSNRNTYLHWYLQKPGQSPQLLIYKVSNRFSGVPDRFSGSGSGTDFTLKISRVEAEDVGVYYCSQNTHVPPTFGQGTKVEIERTVAAPSVFIFPPSDEQLKSGTASVVCLLNNFYPREAKVQWKVDNALQSGNSQESVTEQDSKDSTYSLSSTLTLSKADYEKHKVYACEVTHQGLSSPVTKSFNRGEC
# notes: Anti-glypican-3 IgG1; mutation only in the GpH7-B3-derived H chain; also called P331F heterodimerized antibody
# B2: GpH7-B3 variant T335_09D/GpL16-k0 (Ho Ab) (antibody, human IgG1, kappa)
# heavy: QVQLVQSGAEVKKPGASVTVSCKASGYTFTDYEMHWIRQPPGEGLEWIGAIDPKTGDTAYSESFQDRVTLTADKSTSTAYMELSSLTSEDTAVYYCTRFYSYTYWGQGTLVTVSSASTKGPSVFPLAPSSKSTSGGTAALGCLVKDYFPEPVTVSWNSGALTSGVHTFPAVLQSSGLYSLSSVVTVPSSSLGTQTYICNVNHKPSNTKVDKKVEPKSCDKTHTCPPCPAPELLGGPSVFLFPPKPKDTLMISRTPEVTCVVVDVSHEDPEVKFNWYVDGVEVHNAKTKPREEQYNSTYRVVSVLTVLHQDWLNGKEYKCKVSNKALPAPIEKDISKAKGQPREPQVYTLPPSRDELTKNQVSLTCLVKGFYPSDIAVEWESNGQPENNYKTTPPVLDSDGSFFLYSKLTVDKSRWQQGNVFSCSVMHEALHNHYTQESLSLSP
# light: B1 light
# notes: Anti-glypican-3 IgG1; mutation in both H chains; also called T335D homodimerized antibody
# B3: GpH7-B3 variant S337_10E/GpL16-k0 (Ho Ab) (antibody, human IgG1, kappa)
# heavy: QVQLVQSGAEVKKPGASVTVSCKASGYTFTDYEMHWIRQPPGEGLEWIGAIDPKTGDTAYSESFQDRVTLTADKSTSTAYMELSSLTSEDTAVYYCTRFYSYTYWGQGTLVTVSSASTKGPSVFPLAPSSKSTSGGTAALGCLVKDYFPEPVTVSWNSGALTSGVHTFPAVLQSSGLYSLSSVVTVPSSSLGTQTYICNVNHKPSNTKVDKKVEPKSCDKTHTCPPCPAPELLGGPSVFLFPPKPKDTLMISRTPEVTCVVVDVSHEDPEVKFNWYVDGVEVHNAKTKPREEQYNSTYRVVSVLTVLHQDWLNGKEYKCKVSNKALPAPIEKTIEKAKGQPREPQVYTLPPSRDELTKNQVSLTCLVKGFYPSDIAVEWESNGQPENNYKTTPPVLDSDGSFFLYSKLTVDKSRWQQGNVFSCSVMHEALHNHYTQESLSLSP
# light: B1 light
# notes: Anti-glypican-3 IgG1; mutation in both H chains; also called S337E homodimerized antibody
# B4: GpH7-A5/GpH7-B3 variant S298_08L/GpL16-k0 (He Ab) (antibody, human IgG1, kappa)
# heavy 1: not shown
# heavy 2: not shown
# light: B1 light
# notes: Anti-glypican-3 IgG1; mutation only in the GpH7-B3-derived H chain; also called S298L heterodimerized antibody
# B5: GpH7-A5/GpH7-B3 variant T335_08L/GpL16-k0 (He Ab) (antibody, human IgG1, kappa)
# heavy 1: not shown
# heavy 2: not shown
# light: B1 light
# notes: Anti-glypican-3 IgG1; mutation only in the GpH7-B3-derived H chain; also called T335L heterodimerized antibody
# B6: GpH7-A5/GpH7-B3 variant S267_02A/GpL16-k0 (He Ab) (antibody, human IgG1, kappa)
# heavy 1: not shown
# heavy 2: not shown
# light: B1 light
# notes: Anti-glypican-3 IgG1; mutation only in the GpH7-B3-derived H chain; also called S267A heterodimerized antibody
# B7: GpH7-A5/GpH7-B3 variant L328_19Q/GpL16-k0 (He Ab) (antibody, human IgG1, kappa)
# heavy 1: not shown
# heavy 2: not shown
# light: B1 light
# notes: Anti-glypican-3 IgG1; mutation only in the GpH7-B3-derived H chain; also called L328Q heterodimerized antibody
# B8: GpH7-A5/GpH7-B3 variant S337_10E/GpL16-k0 (He Ab) (antibody, human IgG1, kappa)
# heavy 1: not shown
# heavy 2: not shown
# light: B1 light
# notes: Anti-glypican-3 IgG1; mutation only in the GpH7-B3-derived H chain; also called S337E heterodimerized antibody
# B9: GpH7-A5/GpH7-B3 variant L328_07I/GpL16-k0 (He Ab) (antibody, human IgG1, kappa)
# heavy 1: not shown
# heavy 2: not shown
# light: B1 light
# notes: Anti-glypican-3 IgG1; mutation only in the GpH7-B3-derived H chain; also called L328I heterodimerized antibody
# B10: GpH7-A5/GpH7-B3 variant S239_08L/GpL16-k0 (He Ab) (antibody, human IgG1, kappa)
# heavy 1: not shown
# heavy 2: not shown
# light: B1 light
# notes: Anti-glypican-3 IgG1; mutation only in the GpH7-B3-derived H chain; also called S239L heterodimerized antibody
# B11: GpH7-A5/GpH7-B3 variant K334_19Q/GpL16-k0 (He Ab) (antibody, human IgG1, kappa)
# heavy 1: not shown
# heavy 2: not shown
# light: B1 light
# notes: Anti-glypican-3 IgG1; mutation only in the GpH7-B3-derived H chain; also called K334Q heterodimerized antibody
# B12: GpH7-B3 variant S337_14T/GpL16-k0 (Ho Ab) (antibody, human IgG1, kappa)
# heavy: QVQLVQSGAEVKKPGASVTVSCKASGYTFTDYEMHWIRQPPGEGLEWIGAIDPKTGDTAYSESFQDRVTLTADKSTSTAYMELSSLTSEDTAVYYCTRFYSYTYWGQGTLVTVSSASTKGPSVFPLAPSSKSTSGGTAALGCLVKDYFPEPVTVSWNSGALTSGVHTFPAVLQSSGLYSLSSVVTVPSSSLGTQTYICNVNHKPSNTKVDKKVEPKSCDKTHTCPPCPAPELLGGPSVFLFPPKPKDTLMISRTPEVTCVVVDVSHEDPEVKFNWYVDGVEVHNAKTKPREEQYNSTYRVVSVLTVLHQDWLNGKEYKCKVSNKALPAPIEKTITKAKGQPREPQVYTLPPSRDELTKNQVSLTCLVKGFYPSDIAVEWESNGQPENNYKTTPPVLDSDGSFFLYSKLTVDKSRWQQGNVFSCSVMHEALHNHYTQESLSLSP
# light: B1 light
# notes: Anti-glypican-3 IgG1; mutation in both H chains; also called S337T homodimerized antibody
# B13: GpH7-A5/GpH7-B3 variant S267_14T/GpL16-k0 (He Ab) (antibody, human IgG1, kappa)
# heavy 1: not shown
# heavy 2: not shown
# light: B1 light
# notes: Anti-glypican-3 IgG1; mutation only in the GpH7-B3-derived H chain; also called S267T heterodimerized antibody
# B14: GpH7-B3 variant T335_08L/GpL16-k0 (Ho Ab) (antibody, human IgG1, kappa)
# heavy: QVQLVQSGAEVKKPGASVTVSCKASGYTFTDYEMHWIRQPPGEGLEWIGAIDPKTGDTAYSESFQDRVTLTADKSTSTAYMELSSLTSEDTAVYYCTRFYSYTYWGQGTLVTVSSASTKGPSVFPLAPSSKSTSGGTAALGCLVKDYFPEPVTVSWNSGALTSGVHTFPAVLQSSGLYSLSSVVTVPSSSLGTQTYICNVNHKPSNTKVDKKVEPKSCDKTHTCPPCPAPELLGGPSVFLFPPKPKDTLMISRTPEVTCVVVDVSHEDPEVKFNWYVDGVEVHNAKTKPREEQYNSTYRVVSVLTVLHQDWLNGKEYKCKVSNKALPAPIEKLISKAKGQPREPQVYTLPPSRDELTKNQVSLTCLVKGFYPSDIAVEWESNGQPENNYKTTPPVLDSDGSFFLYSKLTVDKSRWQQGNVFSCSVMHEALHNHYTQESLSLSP
# light: B1 light
# notes: Anti-glypican-3 IgG1; mutation in both H chains; also called T335L homodimerized antibody
# B15: GpH7-A5/GpH7-B3 variant K334_18N/GpL16-k0 (He Ab) (antibody, human IgG1, kappa)
# heavy 1: not shown
# heavy 2: not shown
# light: B1 light
# notes: Anti-glypican-3 IgG1; mutation only in the GpH7-B3-derived H chain; also called K334N heterodimerized antibody
# B16: GpH7-A5/GpH7-B3 variant S267_08L/GpL16-k0 (He Ab) (antibody, human IgG1, kappa)
# heavy 1: not shown
# heavy 2: not shown
# light: B1 light
# notes: Anti-glypican-3 IgG1; mutation only in the GpH7-B3-derived H chain; also called S267L heterodimerized antibody
# B17: GpH7-A5/GpH7-B3 variant K334_15Y/GpL16-k0 (He Ab) (antibody, human IgG1, kappa)
# heavy 1: not shown
# heavy 2: not shown
# light: B1 light
# notes: Anti-glypican-3 IgG1; mutation only in the GpH7-B3-derived H chain; also called K334Y heterodimerized antibody
# B18: GpH7-A5/GpH7-B3 variant L328_15Y/GpL16-k0 (He Ab) (antibody, human IgG1, kappa)
# heavy 1: not shown
# heavy 2: not shown
# light: B1 light
# notes: Anti-glypican-3 IgG1; mutation only in the GpH7-B3-derived H chain; also called L328Y heterodimerized antibody
# B19: GpH7-A5/GpH7-B3 variant S239_01G/GpL16-k0 (He Ab) (antibody, human IgG1, kappa)
# heavy 1: not shown
# heavy 2: not shown
# light: B1 light
# notes: Anti-glypican-3 IgG1; mutation only in the GpH7-B3-derived H chain; also called S239G heterodimerized antibody
# B20: GpH7-A5/GpH7-B3 variant S267_03V/GpL16-k0 (He Ab) (antibody, human IgG1, kappa)
# heavy 1: not shown
# heavy 2: not shown
# light: B1 light
# notes: Anti-glypican-3 IgG1; mutation only in the GpH7-B3-derived H chain; also called S267V heterodimerized antibody
# B21: GpH7-A5/GpH7-B3 variant S267_10E/GpL16-k0 (He Ab) (antibody, human IgG1, kappa)
# heavy 1: not shown
# heavy 2: not shown
# light: B1 light
# notes: Anti-glypican-3 IgG1; mutation only in the GpH7-B3-derived H chain; also called S267E heterodimerized antibody
# B22: GpH7-A5/GpH7-B3 variant P238_08L/GpL16-k0 (He Ab) (antibody, human IgG1, kappa)
# heavy 1: not shown
# heavy 2: not shown
# light: B1 light
# notes: Anti-glypican-3 IgG1; mutation only in the GpH7-B3-derived H chain; also called P238L heterodimerized antibody
# Target: T1, human FcγRIIb extracellular domain with …
# Test: SPR (Biacore T100), antibody captured on antigen peptide chip, FcγRIIb as analyte; relative binding
# Method: Analysis of interaction between objective antibody and the FcγR was carried out using Biacore T100 (GE Healthcare). HBS-EP+ (GE Healthcare) was used as the running buffer, and the measurement temperature was set to 25° C. Chips produced by immobilizing the antigen peptide by the amine coupling method to a Series S Sencor Chip CM5 (GE Healthcare), or alternatively, chips produced by allowing preliminarily biotinylated antigen peptides to interact with and immobilize onto a Series S Sensor Chip SA (certified) (GE Healthcare) were used. Antibodies of interest were captured onto an antigen peptide-immobilized chip, and allowed to interact to each FcγR diluted with running buffer. To regenerate and repeatedly use the chip, the antibodies captured on the chip were washed off by reacting 10 mM glycine-HCl, pH 1.5.
He/Con_2b,Ho/Con_2b,Binder
110 % of control GpH7-A5/GpH7-B3/GpL16-k0 (=100),–,B1
–,116 % of control GpH7-B3/GpL16-k0 (=100),B2
–,109 % of control GpH7-B3/GpL16-k0 (=100),B3
108 % of control GpH7-A5/GpH7-B3/GpL16-k0 (=100),–,B4
104 % of control GpH7-A5/GpH7-B3/GpL16-k0 (=100),–,B5
243 % of control GpH7-A5/GpH7-B3/GpL16-k0 (=100),–,B6
105 % of control GpH7-A5/GpH7-B3/GpL16-k0 (=100),–,B7
107 % of control GpH7-A5/GpH7-B3/GpL16-k0 (=100),–,B8
160 % of control GpH7-A5/GpH7-B3/GpL16-k0 (=100),–,B9
140 % of control GpH7-A5/GpH7-B3/GpL16-k0 (=100),–,B10
109 % of control GpH7-A5/GpH7-B3/GpL16-k0 (=100),–,B11
–,110 % of control GpH7-B3/GpL16-k0 (=100),B12
104 % of control GpH7-A5/GpH7-B3/GpL16-k0 (=100),–,B13
–,106 % of control GpH7-B3/GpL16-k0 (=100),B14
115 % of control GpH7-A5/GpH7-B3/GpL16-k0 (=100),–,B15
109 % of control GpH7-A5/GpH7-B3/GpL16-k0 (=100),–,B16
109 % of control GpH7-A5/GpH7-B3/GpL16-k0 (=100),–,B17
193 % of control GpH7-A5/GpH7-B3/GpL16-k0 (=100),–,B18
144 % of control GpH7-A5/GpH7-B3/GpL16-k0 (=100),–,B19
192 % of control GpH7-A5/GpH7-B3/GpL16-k0 (=100),–,B20
379 % of control GpH7-A5/GpH7-B3/GpL16-k0 (=100),–,B21
204 % of control GpH7-A5/GpH7-B3/GpL16-k0 (=100),–,B22
